# Values of other authors in article PMC3343272.
# Target: Nonmuscle myosin IIA M32 1907-1938 (Homo sapiens) (UniProt P35579)
# Assay: kinetic assay
# Nonmuscle myosin IIA M32 1907-1938 (Homo sapiens), sequence (P35579 1907-1938): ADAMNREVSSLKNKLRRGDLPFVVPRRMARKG
# S100A4, sequence (P26447 2-101): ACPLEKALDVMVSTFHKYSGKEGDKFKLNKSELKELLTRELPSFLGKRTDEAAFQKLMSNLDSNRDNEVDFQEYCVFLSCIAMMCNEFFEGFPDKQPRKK
substance,measurement,value
S100A4 (from UniProt P26447),Kd,3000 nM
